Columns and labels:
[1] = target: human Nav1.7 (hNav1.7), wild type (human) (UniProt Q15858)
[2] = target: human Nav1.9 with C-terminal GFP (hNav1.9-GFP), wild type (human) (UniProt Q9UI33)
[3] = target: Nav1.8/1.7 DII s3b-s4 chimaera (reverse chimaera: DII s3b-s4 of Nav1.7 built into Nav1.8) (rat | human)
hNav1.7 E818R (human) = hNav1.7 E818R (human) (UniProt Q15858)

Substance: HpTx1 (spider peptide toxin; rational nomenclature κ-sparatoxin-Hv1a) (from UniProt P58425 1-33)
- dose-dependent inhibition of hNav1.7 currents in HEK293T cells (whole-cell patch clamp), IC50 [1]: 0.51 µM
- inhibition of the fast inactivation of hNav1.9 currents in ND7/23 cells, dose-response (whole-cell patch clamp), EC50 [2]: 0.47 µM
- dose-dependent inhibition of the currents of the reverse chimaeric channel by HpTx1 (whole-cell patch clamp), IC50 [3]: 3 µM
- fold reduction in HpTx1 activity (IC50 of current inhibition) against WT hNav1.7 (whole-cell patch clamp) (hNav1.7 E818R (human)): 20 fold

From publication PMC7210961
